Tests used:
[1] = system: Pancreatic cancer cell line KLM-1 (MSLN+); experiment: In vitro cytotoxicity, CellTiter-Glo luminescent cell viability assay, KLM-1; type: cell-based, human; conditions: KLM-1, 72 hours treatment; read-out: Relative IC50 (nM of toxic payload/ADCs)
Experimental: Pancreatic cancer cell line KLM-1 was respectively grown in RPMI 1640 Medium (ATCC modification) medium supplemented with 10% fetal bovine serum. Ovarian carcinoma cell line OVCAR-3 was grown in RPMI 1640 Medium (ATCC modification) medium supplemented with 20% fetal bovine serum. The KLM-1 & OVCAR-3 cell lines were maintained in an atmosphere of 5% CO2 in a humidified 37° C. incubator. The day before treatment, cells were collected and seeded into 96-well plates (4,000 cells per well). On the second day, cells were treated with 3-fold serial dilution concentration of toxic payloads and ADCs. Each treatment was performed in eight triplicate data points. After the treatment of 72 hours, cell viability was assessed by CellTiter-Glo® kit (Promega) according to the manufacturer's instruction. At the end of the incubation, luminescence was measured using a SpectraMax i3x Multi Mode Detection Platform (Molecular Devices). Compound cytotoxicity was evaluated in comparison to cells treated with 0.05% PBS (ADCs) or 0.05% DMSO (toxic payload). IC50 values were calculated by fitting viability data with a four-parameter logistic equation using GraphPad prism 5.0 software.

[2] = In vivo PK in rats, MSD ECL total and conjugated antibody assays; conditions: for AUC(0−last) / AUC(0−∞) / C0 / CL / MRT / Vss / t1/2: 5 mg/kg via the tail vein, serum
Source text: This study used Meso Scale Discovery (MSD) Electrochemiluminescent (ECL) method to conduct the pharmacokinetic analysis of DCBPR2002-4(DBCO-vc-MMAE) in BALB/c mice and rat samples. The MSD assay can measure both conjugated and unconjugated antibodies. As illustrated in this example, or total antibody assay the plate is coated with goat anti-human IgG, which can capture all humanized antibodies (conjugated and unconjugated). For the conjugated antibody assay, the plate is coated with an antibody against the payload (drug), such as anti-MMAE antibody.
The in vivo pharmacokinetic study was designed for the comparison the linker-payload stability of trimannosyl-conjugated and cysteine-conjugated synthesis ADC (Adcetris). The rats were administered DCBPR2002-4(DBCO-vc-MMAE) and Adcetris at a dose level of 5 mg/kg via the tail vein. Serum samples were then obtained at different time points for determination of the concentrations of DCBPR2002-4(DBCO-vc-MMAE) and Adcetris in rats by MESO QuickPlex SQ 120 method. The pharmacokinetic parameters of DCBPR2002-4(DBCO-vc-MMAE) and Adcetris were analyzed by noncompartmental analysis using Phoenix™ for WinNonlin Program, version 6.3.

[3] = system: KLM-1 human pancreatic cancer xenograft; experiment: KLM-1 xenograft model (Example 43); type: in vivo, male NOD SCID mice; conditions: 15 mg/kg IV once weekly for 3 weeks
Experimental: (§1) Each of the formulations was administered intravenously (IV) to the mice once weekly for three weeks.
(§2) Five mice were housed in each cage.
When the average tumor volume had reached about 200 mm^3, the mice were randomly divided into 3 groups (N=6 per group). Each of the vehicle, DCBPR2002-lysine-DBCO-vc-MMAE (15 mg/kg), and DCBPR2002-4(DBCO-vc-MMAE) (15 mg/kg) was intravenously administered once weekly for 3 weeks.
(§3) Differences are considered significant at *P<0.05.

[4] = system: KLM-1 human pancreatic cancer xenograft; experiment: KLM-1 xenograft model (Example 44); type: in vivo; conditions: for tumor growth / anti-tumor activity: TGI≥58% considered significant
Experimental: as §1, §2
When the average tumor volume had reached 200 mm^3, the mice were randomLy divided into 4 groups (N=6 per group). Each of the vehicle, DCBPR2002-4(DBCO-vc-MMAE) (15 and 30 mg/kg), and naked antibody (DCBPR2002, 30 mg/kg) was intravenously administered once weekly for 3 weeks.
as §3

[5] = system: OVCAR-3 human ovarian cancer xenograft; experiment: OVCAR-3 xenograft model (Example 46); type: in vivo, female NOD SCID mice
Experimental: as §2
(§4) OVCAR-3 cells were subcutaneously (SC) implanted (1×10^7 cells in 1:1 PBS/matrigel mixture at 0.2 mL per mouse) into the right flank of female NOD SCID mice. […] Each of the vehicle, DCBPR2002-4(DBCO-vc-MMAE) (15 and 30 mg/kg), and DCBPR2002-4(DBCO-vc-seco-DUBA) (15 mg/kg) was intravenously administered once weekly for 3 weeks.
as §3

[6] = system: OVCAR-3 human ovarian cancer xenograft; experiment: OVCAR-3 xenograft model (Example 47); type: in vivo, female NOD SCID mice; conditions: for tumor growth / anti-tumor activity: TGI≥58% considered significant
Experimental: as §2
as §4, with “DCBPR2002-4(DBCO-vc-MMAE) (5” for “DCBPR2002-4(DBCO-vc-MMAE) (15”, “and 15” for “and 30”, “and DCBPR2002-TM” for “and DCBPR2002-4(DBCO-vc-seco-DUBA)”
as §3

[7] = system: OVCAR-3 human ovarian cancer xenograft; experiment: OVCAR-3 xenograft model (Example 48); type: in vivo, female NOD SCID mice; conditions: for tumor growth: TGI≥58% considered significant
Experimental: as §2
OVCAR-3 cells were subcutaneously (SC) implanted (1×10^7 cells in 1:1 PBS/matrigel mixture at 0.2 mL per mouse) into the right flank of female NOD SCID mice. […] Each of the vehicle, and DCBPR2002-4(DBCO-vc-MMAE) (5, 10, and 15 mg/kg) was intravenously administered once weekly for 3 weeks.
as §3

[8] = 15 mg/kg IV once weekly for 3 weeks
[9] = 30 mg/kg IV once weekly for 3 weeks
[10] = 5 mg/kg IV once weekly for 3 weeks
[11] = 10 mg/kg IV once weekly for 3 weeks

B1: DCBPR2002-4(DBCO-vc-MMAE): DCBPR2002-4Az reacted with DBCO-vc-MMAE; trimannosyl-conjugated ADC, DAR 3.89 (conjugate)
VH: QVQLVQSGAEVKKPGASVKVSCKASGYSFTGYTMNWVRQAPGQGLEWMGLITPYNGASSYNQKFRGRVTMTRDTSISTAYMELSRLRSDDTAVYYCARGGYDGRGFDYWGQGTLVTVSS
VL: EIVLTQSPATLSLSPGERATLSCSASSSVSYMHWYQQKPGQAPRLLIYDTSKLASGIPARFSGSGSGTDFTLTISSLEPEDFAVYYCQQWSKHPLTFGQGTKVEIKR
[1]
  IC50: 101 nM
[2]; Conjugated antibody
  AUC(0−last): 2334.505 µg·h/mL
  AUC(0−∞): 2400.45 µg·h/mL
  C0: 80.955 µg/mL
  CL: 2.1 mL/h/kg
  MRT: 85.6 h
  Vss: 0.179 L/kg
  t1/2: 148 ± 8.14 h
[2]; Total antibody
  AUC(0−last): 4013.185 µg·h/mL
  AUC(0−∞): 4363.325 µg·h/mL
  C0: 94.121 µg/mL
  CL: 1.14 mL/h/kg
  MRT: 160 h
  Vss: 0.183 L/kg
  t1/2: 194 ± 35.0 h
[2]; 5 mg/kg, compared with Adcetris
  difference between the curve of total antibody and conjugated antibody (stability of the conjugated linker-payload): closed on DCBPR2002-4(DBCO-vc-MMAE) than that of Adcetris
[3]
  body weight changes: No body weight loss was observed
[3]; TGI≥58% considered significant
  tumor growth / anti-tumor activity: significantly reduced KLM-1 tumor growth from Day 7 to Day 28
[4]; [8]
  body weight changes: No body weight loss was observed
  tumor growth / anti-tumor activity: significantly reduced KLM-1 tumor growth from Day 7 to Day 28
[4]; [9]
  body weight changes: No body weight loss was observed
  tumor growth / anti-tumor activity: significantly reduced KLM-1 tumor growth from Day 7 to Day 28
[5]; [8]
  body weight changes: No body weight loss was observed
[5]; [9]
  body weight changes: No body weight loss was observed
[6]; [10]
  body weight changes: No body weight loss was observed
  tumor growth / anti-tumor activity: significantly reduced OVCAR-3 tumor growth
[6]; [8]
  body weight changes: No body weight loss was observed
  tumor growth / anti-tumor activity: significantly reduced OVCAR-3 tumor growth
[7]; [10]
  body weight changes: No body weight loss was observed
  tumor growth: significantly reduced OVCAR-3 tumor growth with a dose-dependent manner
[7]; [11]
  body weight changes: No body weight loss was observed
  tumor growth: significantly reduced OVCAR-3 tumor growth with a dose-dependent manner
[7]; [8]
  body weight changes: No body weight loss was observed
  tumor growth: significantly reduced OVCAR-3 tumor growth with a dose-dependent manner

— US11998613B2, “Antibody-drug conjugates containing an anti-mesothelin antibody and uses thereof” (DEVELOPMENT CENTER FOR BIOTECHNOLOGY, priority 2020, dated 2024)
